Experimental data as given in patent US20240409960A1, “METHOD FOR CONTROLLING PROTEIN FUNCTION” (The University of Tokyo, priority 2021, published 2024).

Columns and labels:
[1] = system: DNA sequence flanked by two loxP sites (loxP-stop-loxP Fluc reporter) in HEK293 cells; assay: luciferase assay of Cre-loxP DNA recombination in HEK293 cells; format: cell-based, human; details: for background DNA recombination activity (leakage) in the absence of TMP: luciferase reporter; for TMP-dependent DNA recombination activity (induction): TMP 10 nM or 500 nM vs DMSO
Excerpt: For constructing a luciferase reporter for detecting Cre-loxP recombinase activity, the polyadenylation signal (poly(A)) repeated sequence (“stop”)) flanked by two loxP sites ([…]: SEQ ID No: 36) in the same orientation was amplified from Addgene plasmid (ID: 22797). Sequence encoding firefly luciferase (Fluc) was amplified from pGL4.31 vector (Promega). The loxP stop-loxP-Fluc construct was inserted into HindIII and XhoI sites in pcDNA3.1 (+) vector containing the CMV promoter.
HEK293T cells (American Type Culture Collection: ATCC) were cultured at 37° C. under 5% CO2 in Dulbecco's Modified Eagle Medium (DMEM; Thermo Fisher Scientific) supplemented with 10% fetal bovine serum (FBS; Thermo Fisher Scientific), 100 units/ml of penicillin and 100 μg/ml of streptomycin (Thermo Fisher Scientific) and 2 mM GlutaMAX (Thermo Fisher Scientific).
For luciferase assay, HEK 293 cells were plated at 25,000 cells per well on a 96-well flat white microplate (Thermo Fisher Scientific), and were then cultured for 24 hours at 37° C. in 5% CO2. The cells were transfected with cDNAs encoding destabilized Cre along with the luciferase reporter (loxP-stop-loxP Fluc), using X-tremeGENE9 reagent (Merck Millipore) at 37° C. The total amount of DNA was 50 ng per well. Twenty-four hours after the transfection, TMP or DMSO was added into the cells, and the cells were further cultured for 24 hours or 48 hours. Just before the luciferase assay, the medium was replaced with Hanks' balanced salt solution (HBSS) (Thermo Fisher Scientific) containing 0.2 mM D-luciferin potassium salt. Bioluminescence measurement was performed for 1 second per well at room temperature using a Centro XS^3 LB 960 plate-reading luminometer (Berthold Technologies).

[2] = system: loxP-stop-loxP Fluc reporter in mice liver; assay: in vivo Cre-loxP recombination, bioluminescence imaging after HTV injection into mice; details: for DNA recombination activity in vivo in the absence of TMP: HTV injection, DMSO I.P., bioluminescence 24 hours after injection; for TMP-dependent DNA recombination activity in vivo: TMP 167 μg/g body weight I.P. 3 hours after HTV injection
Procedure: Experiments using mice were performed in accordance with the Guidelines for Care and Use of Laboratory Animals as stated by the University of Tokyo. In all the experiments, four week-old female Slc: ICR mice (Sankyo Labo Service Corporation, Inc.) were used. The mice were […] with cDNAs encoding destabilized Cre along with the luciferase reporter (loxP-stop-loxP Fluc) at 1:9 ratio, using TransIT-EE Hydrodynamic Delivery Solution (Mirus Bio LLC, Madison). The total amount of the DNA injected into a mouse was 10 μg per mouse. The volume of a delivery solution was set at 0.1 mL per mouse weight (g). After the hydrodynamic (HTV) injection of DNA, the mice were bred for 3 hours, and thereafter, TMP (167 μg/g body weight) or DMSO was intraperitoneally (I.P.) injected into the mice. The total volume of the TMP solution injected into a mouse was 100 μL per mouse weight (g). The intraperitoneally injected mice were bred for further 21 hours. The bioluminescence imaging of the mice was performed 24 hours after the HTV injection of DNA. Prior to the bioluminescence imaging, 100 mM D-luciferin was intraperitoneally injected into the mice. The total volume of the injected D-luciferin solution was 10 μL per mouse weight (g). Three minutes after the D-luciferin injection, the bioluminescence images of the mice were obtained using the Lumazone bioluminescence imager (Nippon Roper) equipped with the Evolve EMCCD camera (Photometrics) for 1 minutes. During the intraperitoneal D-luciferin injection and the bioluminescence imaging, the mice were anaesthetized with isoflurane (Abb Vie) to keep them motionless. The obtained data were analyzed with the SlideBook 4.2 software (Intelligent Innovations Inc.).
Next, the usefulness of SPEED-Cre in a living mouse body, namely, in vivo was examined. Using a hydrodynamic tail vain (HTV) injection method (Liu et al., Gene Ther. 6:1258-1266, 1999), mice liver was we transiently transfected with DD-Cre or SPEED-Cre (FIG. 5a). Three hours after the HTV injection, TMP (167 μg/g body weight) or DMSO was intraperitoneally (I.P.) administered into the DD-Cre- or SPEED-Cre-transfected mice (FIG. 5a). The DNA recombination activity was measured using the bioluminescence of a luciferase reporter as an indicator. […] The DNA recombination ability of DD-Cre in vivo was consistent to the ability in in vitro experiments using the human cell line.

B1: DD-Cre: destabilized Cre tagged with one ecDHFR-derived DD sequence; SEQ ID No: 3 (protein)
chain: MVSKYPYDVPDYARSGGSGGMISLIAALAVDYVIGMENAMPWNLPADLAWFKRNTLNKPVIMGRHTWESIGRPLPGRKNIILSSQPSTDDRVTWVKSVDEAIAACGDVPEIMVIGGGRVIEQFLPKAQKLYLTHIDAEVEGDTHFPDYEPDDWESVFSEFHDADAQNSHSYCFEILERRGGSGGSGGKLVPKKKRKVGGSNLLTVHQNLPALPVDATSDEVRKNLMDMFRDRQAFSEHTWKMLLSVCRSWAAWCKLNNRKWFPAEPEDVRDYLLYLQARGLAVKTIQQHLGQLNMLHRRSGLPRPSDSNAVSLVMRRIRKENVDAGERAKQALAFERTDFDQVRSLMENSDRCQDIRNLAFLGIAYNTLLRIAEIARIRVKDISRTDGGRMLIHIGRTKTLVSTAGVEKALSLGVTKLVERWISVSGVADDPNNYLFCRVRKNGVAAPSATSQLSTRALEGIFEATHRLIYGAKDDSGQRYLAWSGHSARVGAARDMARAGVSIPEIMQAGGWTNVNIVMNYIRNLDSETGAMVRLLEDGD
modifications: MISC_FEATURE - HAtag; DOMAIN 21..179 degradation domain; SIGNAL 190..197 Nuclear Localization Signal; Bacteriophage P1
[1]; HEK293 cells transfected with 5 ng of expression plasmid, TMP treatment
  TMP-dependent DNA recombination activity: does not induce the DNA recombination
[1]; HEK293 cells, no TMP
  background DNA recombination activity (leakage) in the absence of TMP: almost the same level of the recombination activity of iCre
[1]; transfection amount reduced by one 400th, HEK293 cells
  recombination activity after reduction of the transfection amount: remained at almost the same level as that before the reduction of the transfection amount
[2]
  DNA recombination activity in vivo in the absence of TMP: high DNA recombination activity at the same level as iCre
  TMP-dependent DNA recombination activity in vivo: DNA recombination was not induced

B2: split-Cre: Cre split between Ser152 and Asp153 into N-terminal (a.a. 2-152) and C-terminal (a.a. 153-343) self-assembling fragments; SEQ ID No: 8 (protein)
chain: MVSKYPYDVPDYARSGGSGGKLVPKKKRKVGGSNLLTVHQNLPALPVDATSDEVRKNLMDMFRDRQAFSEHTWKMLLSVCRSWAAWCKLNNRKWFPAEPEDVRDYLLYLQARGLAVKTIQQHLGQLNMLHRRSGLPRPSDSNAVSLVMRRIRKENVDAGERAKQALAFERTDFDQVRSLMENSGSGSGATNFSLLKQAGDVEENPGPLEDRCQDIRNLAFLGIAYNTLLRIAEIARIRVKDISRTDGGRMLIHIGRTKTLVSTAGVEKALSLGVTKLVERWISVSGVADDPNNYLFCRVRKNGVAAPSATSQLSTRALEGIFEATHRLIYGAKDDSGQRYLAWSGHSARVGAARDMARAGVSIPEIMQAGGWTNVNIVMNYIRNLDSETGAMVRLLEDGD
modifications: MISC_FEATURE - HAtag; SIGNAL 23..30 Nuclear Localization Signal; MISC_FEATURE - N-terminal of Cre; MISC_FEATURE - P2A; MISC_FEATURE - C-terminal side of Cre; Bacteriophage P1
[1]; N-terminal (a.a. 2-152) and C-terminal (a.a. 153-343) fragments expressed via P2A in HEK293 cells, no TMP
  recombination efficiency of the self-assembled split fragments: high recombination efficiency comparable to that of iCre

B3: DD-sasCre: sasCre tagged with a single DD sequence on the N terminal side of Cre; SEQ ID No: 9 (protein)
chain: MVSKYPYDVPDYARSGGSGGMISLIAALAVDYVIGMENAMPWNLPADLAWFKRNTLNKPVIMGRHTWESIGRPLPGRKNIILSSQPSTDDRVTWVKSVDEAIAACGDVPEIMVIGGGRVIEQFLPKAQKLYLTHIDAEVEGDTHFPDYEPDDWESVFSEFHDADAQNSHSYCFEILERRGGSGGSGGKLVPKKKRKVGGSNLLTVHQNLPALPVDATSDEVRKNLMDMFRDRQAFSEHTWKMLLSVCRSWAAWCKLNNRKWFPAEPEDVRDYLLYLQARGLAVKTIQQHLGQLNMLHRRSGLPRPSDSNAVSLVMRRIRKENVDAGERAKQALAFERTDFDQVRSLMENSGSGSGATNFSLLKQAGDVEENPGPLEDRCQDIRNLAFLGIAYNTLLRIAEIARIRVKDISRTDGGRMLIHIGRTKTLVSTAGVEKALSLGVTKLVERWISVSGVADDPNNYLFCRVRKNGVAAPSATSQLSTRALEGIFEATHRLIYGAKDDSGQRYLAWSGHSARVGAARDMARAGVSIPEIMQAGGWTNVNIVMNYIRNLDSETGAMVRLLEDGD
modifications: MISC_FEATURE - HAtag; DOMAIN 21..179 Degradation Domain; SIGNAL 190..197 Nuclear Localization Signal; MISC_FEATURE - N-terminal side of Cre; MISC_FEATURE - P2A; MISC_FEATURE - C-terminal side of Cre; Bacteriophage P1
[1]; HEK293 cells, no TMP
  background DNA recombination activity (leakage) in the absence of TMP: significantly lower activity leakage than DD-Cre 1.4

B4: SPEED-Cre: split Cre with a DD sequence on each of the N-terminal and C-terminal fragments; SEQ ID No: 10 (protein)
chain: MVSKYPYDVPDYARSGGSGGMISLIAALAVDYVIGMENAMPWNLPADLAWFKRNTLNKPVIMGRHTWESIGRPLPGRKNIILSSQPSTDDRVTWVKSVDEAIAACGDVPEIMVIGGGRVIEQFLPKAQKLYLTHIDAEVEGDTHFPDYEPDDWESVFSEFHDADAQNSHSYCFEILERRGGSGGSGGKLVPKKKRKVGGSNLLTVHQNLPALPVDATSDEVRKNLMDMFRDRQAFSEHTWKMLLSVCRSWAAWCKLNNRKWFPAEPEDVRDYLLYLQARGLAVKTIQQHLGQLNMLHRRSGLPRPSDSNAVSLVMRRIRKENVDAGERAKQALAFERTDFDQVRSLMENSGSGSGATNFSLLKQAGDVEENPGPLEDRCQDIRNLAFLGIAYNTLLRIAEIARIRVKDISRTDGGRMLIHIGRTKTLVSTAGVEKALSLGVTKLVERWISVSGVADDPNNYLFCRVRKNGVAAPSATSQLSTRALEGIFEATHRLIYGAKDDSGQRYLAWSGHSARVGAARDMARAGVSIPEIMQAGGWTNVNIVMNYIRNLDSETGAMVRLLEDGDGGSGGSGGMISLIAALAVDYVIGMENAMPWNLPADLAWFKRNTLNKPVIMGRHTWESIGRPLPGRKNIILSSQPSTDDRVTWVKSVDEAIAACGDVPEIMVIGGGRVIEQFLPKAQKLYLTHIDAEVEGDTHFPDYEPDDWESVFSEFHDADAQNSHSYCFEILERR
modifications: MISC_FEATURE - HAtag; DOMAIN 21..179 Degradation Domain; SIGNAL 190..197 Nuclear Localization Signal; MISC_FEATURE - N-terminal side of Cre; MISC_FEATURE - P2A; MISC_FEATURE - C-terminal side of Cre; DOMAIN 576..734 Degradation Domain; Bacteriophage P1
[1]; 5 ng expression plasmid, 24 or 48 hours (FIG. 4d)
  TMP-dependent DNA recombination activity (induction): not less than 10 fold
[1]; HEK293 cells, no TMP
  background DNA recombination activity (leakage) in the absence of TMP: extremely low level that was comparable to the case of using the pcDNA3.1 empty vector plasmid and the reporter plasmid
[1]; HEK293 cells, plasmid amount varied, no TMP
  leakage of DNA recombination activity in the absence of TMP as a function of the amount of expression plasmid: maintained a low level
[1]; expression plasmid in various amounts, 24 or 48 hours (FIGS. 4f and g)
  TMP-dependent DNA recombination activity (induction): up to 330 fold
[2]
  DNA recombination activity in vivo in the absence of TMP: suppressed to low, comparable to a negative control group using the pcDNA3.1 empty vector plasmid
  TMP-dependent DNA recombination activity in vivo: high TMP-dependent DNA recombination activity, comparable to the recombination activity of Cre
